Assay results reported in the supplement of paper PMC10567573.
± gives the standard deviation.

Test: protein stability index of a GFP-peptide fusion (GPS, HEK-293T) (PSI 1-6); higher = more stable
[1] = treatment: DMSO, c terminus: a fixed tail appended
[2] = treatment: MLN4924 1 uM, 8 h, c terminus: a fixed tail appended
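Further: 24-mer peptide tiles fused after GFP, lentivirally expressed, FACS-sorted into six equal bins by GFP/DsRed ratio, decoded by Illumina sequencing, PSI is the read-weighted mean bin number.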

Sequence | protein stability index [1] | protein stability index [2] | protein stability index (treatment: DMSO, c terminus: native) | protein stability index (treatment: MLN4924 1 uM, 8 h, c terminus: native)
SVVTEDGPEPKDKGSLPQPPITEV [ZNF232] | 5.5 ± 0.2 | 5.48 ± 0.18 |  | 
DPYLSYRWKRRRSYSREHEGRLRY [CLK3] | 3.54 ± 0.33 | 3.57 ± 0.56 |  | 
NKTWREQYLRLPDAPEQRLRVMTT [ELOA2] | 3.26 ± 0.31 | 3.19 ± 0.48 |  | 
CRANRNCPIDQHHRNQCQYCRLKK [NR2F2] | 4.2 ± 0.044 | 4.39 ± 0.14 |  | 
GTENGAIDAVPVDENLFTGEDLDE [ZC3H15] | 5.7 ± 0.3 | 5.52 ± 0.44 |  | 
FKWYLENVYPEMRVYNNTLTYGEV [GALNT9] | 2.38 ± 0.48 | 2.43 ± 0.35 |  | 
QRSPLGGDVLHAHLDIWKSAAWMK [SPDEF] | 2.61 ± 0.37 | 2.58 ± 0.45 |  | 
ENERVRGLETGDWGGAPKEGSIWR [ZSWIM9] | 4.29 ± 0.32 | 4.16 ± 0.28 |  | 
VDCACLKENPECPVLKRSSESMEN [KMT2E] | 4.96 ± 0.37 | 4.98 ± 0.19 |  | 
DEMYEVRIAAVEALCMLAQSSPSF [INTS4] | 2.69 ± 0.81 | 2.31 ± 0.11 |  | 
SPSKTDGKELAGTMDGEGTLFQTE [PBXIP1] | 5.31 ± 0.24 | 5.44 ± 0.3 |  | 
RATRAGAAEEPGVRGLLASLFAFK [C2CD2L] | 3.1 ± 0.75 | 3.01 ± 0.57 |  | 
KPHRCHNCGKSFSRLTALTLHQRT [ZNF449] | 2.46 ± 0.096 | 2.78 ± 0.76 |  | 
SEADASHCIQQILEAVLHCHQMGV [CAMK2B] | 2.48 ± 0.14 | 2.67 ± 0.59 |  | 
EPGRLYLDLILAILALELICSLIC [TMEM192] | 2.35 ± 0.49 | 2.21 ± 0.34 |  | 
GLRRVLDELTLARTDLEMQIEGLN [KRT15] | 2.71 ± 0.3 | 2.66 ± 0.19 |  | 
KVQKPLLQAPFLPPKAPPPVIKIP [RHOBTB1] | 3.17 ± 0.11 | 3.35 ± 0.13 |  | 
AELNKEVSTNTAMIQTSKTEITEL [KRT13] | 5.26 ± 0.14 | 5.18 ± 0.079 |  | 
VDLELFPSPDMECADVPLLTPSSK [ETS1] | 4.07 ± 0.24 | 4.05 ± 0.2 |  | 
GKTPVCHQCHKVIRGRYLVALGHA [PDLIM7] | 2.1 ± 0.1 | 2.72 ± 0.33 |  | 
NILLDKHRMVVKIGDFGISKILSS [NEK8] | 2.19 ± 0.15 | 2.09 ± 0.17 |  | 
PCKQCKKKYVKGDVSLCRWHPKPY [FBXO34] | 3.09 ± 0.34 | 3.07 ± 0.51 |  | 
GFSSGRHRWQVDLQLGDGGGCTVG [TRIM15] | 2.93 ± 0.29 | 3.07 ± 0.27 |  | 

Sequence | protein stability index [1] | protein stability index [2] | protein stability index (treatment: DMSO, c terminus: native) | protein stability index (treatment: MLN4924 1 uM, 8 h, c terminus: native)
DGNKDVYLSLLRMYLSPPSIHCLG [VPS39] | 2.94 ± 0.57 | 2.72 ± 0.33 |  | 
HLALHAASSGDLTCGVCALELGST [PLAGL1] | 3.01 ± 0.48 | 2.93 ± 0.24 |  | 
LLLLLFWGVVSHSFPATLETQEQD [MMP1] | 2.97 ± 0.58 | 2.76 ± 0.82 |  | 
MSQGPPTGESSEPEAKVLHTKRLY [SMG5] | 4.81 ± 0.24 | 4.94 ± 0.15 |  | 
AERVTLADFKGVLQRPSYKFFFKS [DVL3] | 2.29 ± 0.3 | 2.63 ± 0.44 |  | 
HENETLASLKSEAESLKGKLEEER [GNB5] | 5.29 ± 0.33 | 5.34 ± 0.33 |  | 
TKKKKKTIVTDVFQGSMRIFTKKL [USP39] | 2.49 ± 0.26 | 2.83 ± 0.11 |  | 
EYDYLFKVVLIGDSGVGKSNLLSR [RAB11A] | 2.6 ± 0.65 | 2.39 ± 0.7 |  | 
RRLEAFEHPNVVRLMDVCATSRTD [CDK4] | 3.9 ± 0.13 | 3.91 ± 0.27 |  | 
KPENISLRNKLRELCVKLMFLHPV [SMG5] | 2.9 ± 0.52 | 3.06 ± 0.34 |  | 
YLQDHEKKLRLVFKSLDKKNDGRI [SLC25A25] | 3.3 ± 0.13 | 3.43 ± 0.41 |  | 
RNRLAATKCRKRKLERIARLEDKV [JUNB] | 3.78 ± 0.17 | 3.86 ± 0.12 |  | 
FTNCYIYNKPTDDIVLMAQALEKI [BRD3] | 2.43 ± 0.45 | 1.97 ± 0.12 |  | 
QRHPRLRPQSAQSSFPPSPGPSPD [AUP1] | 4.76 ± 0.21 | 4.97 ± 0.18 |  | 
LMGPSRMSLFSLYMVQDQHECILP [M1AP] | 2.58 ± 0.3 | 2.33 ± 0.24 |  | 
GENSDCHRDSSQAIPITELTKSQV [ZNF8] | 4.94 ± 0.12 | 5.29 ± 0.23 |  | 
HFKPHGFSSDKAKAGSSEWLAVDG [ATF4] | 3.89 ± 0.18 | 3.91 ± 0.17 |  | 
LGDRLNVEVDTAPTVDLNQVLNET [KRT34] | 4.87 ± 0.15 | 4.96 ± 0.29 |  | 
AVTKDFKLTDKHETVVSYLPLSHI [ACSBG2] | 2.98 ± 0.075 | 3.08 ± 0.64 |  | 
LSRLSLMAMPNGFHEDGPQGPGGD [PSD2] | 4.89 ± 0.15 | 4.62 ± 0.13 |  | 
VDTLNVKDIAPEKQLLNSAVIAQQ [DLC1] | 4.53 ± 0.36 | 4.55 ± 0.24 |  | 
HSSELTEQKLRACLEGSINEHSAH [RPAIN] | 4.55 ± 0.26 | 4.44 ± 0.12 |  | 
RAQLPKYQRNLPRPGQAPIGNPPV [ZNF207] | 3.75 ± 0.26 | 3.79 ± 0.14 |  | 

Sequence | protein stability index [1] | protein stability index [2] | protein stability index (treatment: DMSO, c terminus: native) | protein stability index (treatment: MLN4924 1 uM, 8 h, c terminus: native)
ERLFGSAANVVSAKRNRLAPAHVD [ZBED1] | 3.65 ± 0.41 | 3.66 ± 0.34 |  | 
ILENTSKVPAPKDVLAHQVPNAKK [NOP53] | 4.23 ± 0.27 | 4.43 ± 0.16 |  | 
RSLEELTRLAFELFAEEQAEGPNR [LPCAT4] | 3.32 ± 0.52 | 3.53 ± 0.18 |  | 
SSSASSSFSEEGAVGYSSDSETLD [NFE2L1] | 5.65 ± 0.13 | 5.655 ± 0.043 |  | 
VDSAEYSCLKAIVLFTSDACGLSD [NR2F2] | 2.23 ± 0.38 | 2.25 ± 0.31 |  | 
FSTYTSDKDENKLSEASGGRAENG [ZC3H15] | 5.38 ± 0.44 | 5.23 ± 0.58 |  | 
LPSLRTVSSSVIEQLFFVRLVGKT [NR2F2] | 2.44 ± 0.37 | 2.28 ± 0.071 |  | 
LVTLNDMKAKQEALVKEREKQLAK [FAM50A] | 4.23 ± 0.24 | 4.25 ± 0.45 |  | 
RVLNSAKEKSSTVPIPTVNQYLYF [SOAT1] | 2.29 ± 0.14 | 2.47 ± 0.16 |  | 
LREERGHPLHPRHRKAVHLRTRGR [C6orf223] | 4.08 ± 0.23 | 4.06 ± 0.36 |  | 
FQMEKIEHGYENMNHFTVNLNREE [TRIM55] | 3.21 ± 0.47 | 3.57 ± 0.59 |  | 
PTQVPAAEDYLTWKEWGFTGVQEV [SPAG8] | 3.5 ± 0.24 | 3.59 ± 0.31 |  | 
GTIKKIIHQETVSKNGNGLKNTPR [PCMTD2] | 3.68 ± 0.55 | 4.03 ± 0.4 |  | 
KKEEPEPETEAVSSSQEIPTMPQP [ZMYND11] | 5.45 ± 0.47 | 5.55 ± 0.23 |  | 
RRVGILGEELADVGGVLRGLNHSL [SCARA5] | 2.9 ± 0.095 | 2.94 ± 0.3 |  | 
RYESLTDPSKLDSGKELKIDIIPN [HSP90AB1] | 4.33 ± 0.2 | 4.31 ± 0.24 |  | 
HSLTPVSSDHLFLFGGFTTDKQPL [KLHDC2] | 2.95 ± 0.46 | 3.21 ± 0.27 |  | 
GQEYAAKIINTKKLSARDHQKLER [CAMK2D] | 3.96 ± 0.58 | 3.82 ± 0.096 |  | 
NTKNEISELTRLIQRIRSEIENVK [KRT71] | 2.83 ± 0.14 | 2.78 ± 0.24 |  | 
LRFFKEKDGKAFHPTYEEKLKLVA [ACBD3] | 2.53 ± 0.26 | 2.5 ± 0.55 |  | 
LGGAIDFGAAYVLEQASSHIGNST [ATL3] | 3.03 ± 0.23 | 3.2 ± 0.15 |  | 
AAKRMRLEIYQSSQDEPIALDKQH [NOL4L] | 3.59 ± 0.27 | 3.88 ± 0.25 |  | 
NPYYDPLQWKSSHFERRDNMNDNF [CHGB] | 3.27 ± 0.1 | 3.14 ± 0.23 |  | 

Sequence | protein stability index [1] | protein stability index [2] | protein stability index (treatment: DMSO, c terminus: native) | protein stability index (treatment: MLN4924 1 uM, 8 h, c terminus: native)
LLKHSNIVRLHDSISEEGFHYLVF [CAMK2B] | 2.68 ± 0.46 | 2.42 ± 0.37 |  | 
EDTQTDADSSAQAAAQAPENFQEG [TAF7L] | 5.47 ± 0.52 | 5.57 ± 0.42 |  | 
HWKTWLAIKCSPSLHVDDRERMEL [RIPK4] | 2.38 ± 0.26 | 2.53 ± 0.58 |  | 
VMSIPDVIRLKQEQHVHNEKSVLK [PRKX] | 4.18 ± 0.15 | 4.25 ± 0.12 |  | 
QAQQKKAPAKKANSTTTAGRDHFL [BRD3] | 4.44 ± 0.48 | 4.62 ± 0.15 |  | 
DQFIPIWTVANMEEIKKLTTDPDL [LARP4] | 3.97 ± 0.12 | 3.82 ± 0.42 |  | 
RVMMASASDYFKAMFTGGMKEQDL [KLHL13] | 2.91 ± 0.58 | 2.82 ± 0.091 |  | 
TKKRKTFDSSRQRAEGTDIPTVKP [ZC2HC1A] | 4.86 ± 0.22 | 4.79 ± 0.2 |  | 
EEEEEEEEVDLACTPTDVRDVDI [CCND1] |  |  | 4.5 ± 0.5 | 5.14 ± 0.34
GACIVNSENKIVGIGYNGMPNGCS [DCTD] | 3.04 ± 0.33 | 3.21 ± 0.43 |  | 
NQHGIILKYIGMAKREINKLLKQK [ARL6IP1] | 1.93 ± 0.39 | 2.16 ± 0.32 |  | 
QKASLLIQQALTMFPGVLLPLLES [TCF25] | 3.23 ± 0.48 | 3.51 ± 0.29 |  | 
KIIQLGLTFMNEQGEYPPGTSTWQ [CNOT7] | 2.23 ± 0.2 | 2.19 ± 0.18 |  | 
ARIAIRGTIKKIIHQETVSKNGNG [PCMTD2] | 3.01 ± 0.22 | 3.21 ± 0.27 |  | 
TIAQSLEHSWIKAIRRRNVRGEDS [DAPK3] | 3.64 ± 0.41 | 3.4 ± 0.15 |  | 
RPWADTCSSSGKDGNLCLHVPNPP [HESX1] | 3.48 ± 0.14 | 3.81 ± 0.19 |  | 
NGEYTLMPSPTDVVLPGAVSLRYS [ADAMTS4] | 3.23 ± 0.34 | 3.28 ± 0.41 |  | 
QRKVDGIQKAYDELRLQSEAFKKH [CCDC89] | 4.07 ± 0.19 | 4.21 ± 0.3 |  | 
DGLKRRQQLEEELLRAKIEVEKLK [RAD54B] | 4.67 ± 0.31 | 4.85 ± 0.32 |  | 
KLQDVFEMRFAKMPDEPVEAPALP [BRD3] | 3.49 ± 0.23 | 3.62 ± 0.34 |  | 
